These results are taken from patent US20150197559A1 (University of California, published 2015).

Test [1] addresses T1, BoNT/B1 (Clostridium botulinum, UniProt P10844 2-1291).
T1 sequence: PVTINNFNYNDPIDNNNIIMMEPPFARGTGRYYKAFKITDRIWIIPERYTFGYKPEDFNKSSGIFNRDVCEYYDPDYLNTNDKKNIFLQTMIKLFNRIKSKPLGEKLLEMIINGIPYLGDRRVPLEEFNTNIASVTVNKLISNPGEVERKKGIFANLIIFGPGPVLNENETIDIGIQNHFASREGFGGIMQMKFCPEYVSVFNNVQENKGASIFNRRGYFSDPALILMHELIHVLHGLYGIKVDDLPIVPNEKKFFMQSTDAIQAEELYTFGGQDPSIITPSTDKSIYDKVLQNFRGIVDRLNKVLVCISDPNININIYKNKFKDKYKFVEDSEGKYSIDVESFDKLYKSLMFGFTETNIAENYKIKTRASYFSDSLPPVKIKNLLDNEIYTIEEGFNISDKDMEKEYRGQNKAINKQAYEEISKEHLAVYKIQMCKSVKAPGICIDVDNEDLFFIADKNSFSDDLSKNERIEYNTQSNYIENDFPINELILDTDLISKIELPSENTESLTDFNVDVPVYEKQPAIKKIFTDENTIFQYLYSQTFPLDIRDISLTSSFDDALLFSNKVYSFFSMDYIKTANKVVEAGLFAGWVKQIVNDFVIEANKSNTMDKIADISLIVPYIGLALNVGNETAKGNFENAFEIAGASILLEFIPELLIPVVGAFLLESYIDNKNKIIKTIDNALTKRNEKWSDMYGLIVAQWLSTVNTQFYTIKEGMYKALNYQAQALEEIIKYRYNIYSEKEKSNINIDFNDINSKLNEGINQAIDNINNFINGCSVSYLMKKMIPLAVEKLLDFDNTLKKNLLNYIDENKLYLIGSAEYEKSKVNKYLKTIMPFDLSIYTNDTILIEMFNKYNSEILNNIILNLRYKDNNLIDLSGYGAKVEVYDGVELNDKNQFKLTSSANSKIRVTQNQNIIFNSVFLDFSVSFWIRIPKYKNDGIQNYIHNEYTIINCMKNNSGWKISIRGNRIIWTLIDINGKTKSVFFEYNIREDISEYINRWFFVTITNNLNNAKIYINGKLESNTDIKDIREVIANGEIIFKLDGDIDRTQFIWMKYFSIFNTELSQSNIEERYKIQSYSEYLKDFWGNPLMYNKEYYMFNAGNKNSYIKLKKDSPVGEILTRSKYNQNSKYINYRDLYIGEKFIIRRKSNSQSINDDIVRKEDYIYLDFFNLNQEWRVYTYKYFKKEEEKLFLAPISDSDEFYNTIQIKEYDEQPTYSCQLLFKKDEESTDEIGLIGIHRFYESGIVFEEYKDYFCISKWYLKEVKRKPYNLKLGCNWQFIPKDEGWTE
The test is described as follows: KinExA flow fluorimetry, IgG in solution. A general note: In KinExA the mixture passes briefly over coated beads that capture the unbound partner.

The target in test [2] is T1, BoNT/B1. Put plainly: yeast-displayed scFv, flow cytometry; reference parental scFv 1B18. (In general: In flow cytometry, cells or beads pass a laser one at a time.)
Test [3] deals with T1, BoNT/B1. Put plainly: flow cytometry, yeast-displayed affinity matured scFv.

B1: 2B18.1 IgG (antibody, V domains shown)
VH: QVQLVQSGGGLVQPGGSRRLSCAASGFYFNAYWMTWVRQAPGKGLEWVANINLDGTEIYYLDSVKGRFTVSRDNVKNSVFLQMSSLRVEDTAVYFCARLEWGGRNGWVSPWGQGTLVTVSS
VL: DIVMTQSPSSLSASVGDRVSISCRASQSISSYLNWYQQKPGKAPKLLIYKTSSLESGVPSRFSGRGSGTDFTLTISSLQPEDFATYYCQQSYSTPLTFGGGTKVEIKR
In general, Kd refers to the free concentration of one partner at which half of the binding sites on the other are occupied at equilibrium, for simple one-to-one binding. Lower therefore signals higher affinity. B1 returned a dissociation constant (Kd) with BoNT/B1 [1] of 0.0724 nM.

B2: 2B18.1 scFv (scFv)
scFv: QVQLVQSGGGLVQPGGSRRLSCAASGFYFNAYWMTWVRQAPGKGLEWVANINLDGTEIYYLDSVKGRFTVSRDNVKNSVFLQMSSLRVEDTAVYFCARLEWGGRNGWVSPWGQGTLVTVSSGGGGSGGGGSGGGGSDIVMTQSPSSLSASVGDRVSISCRASQSISSYLNWYQQKPGKAPKLLIYKTSSLESGVPSRFSGRGSGTDFTLTISSLQPEDFATYYCQQSYSTPLTFGGGTKVEIKR
On to B2, for which the “Fold increase in affinity scFv (KD wild type/KD matured)” value with BoNT/B1 [2] came to 11.4 fold. Binding in the test with BoNT/B1 [3] was characterised by a dissociation constant (Kd) of 0.638 nM.
